Test results taken from the Human Domainome abundance scans (Beltran et al. 2025).
± gives the uncertainty stated by the source.

B1: Histone H1t, residues 44 to 112; numbered along this chain, P22492 (parent)
chain: VSKLITEALSVSQERVGMSLVALKKALAAAGYDVEKNNSRIKLSLKSLVNKGILVQTRGTGASGSFKLS
B2: Chromodomain-helicase-DNA-binding protein 7, residues 2564 to 2605; numbered along this chain, Q9P2D1 (parent)
chain: DPDTRIPVINLEDGTRLVGEDAPKNKDLVEWLKLHPTYTVDM

Variants of: B1
Assay: abundance fitness (aPCA) (normalised: wild type 0, dead -1); higher = more abundant; growth selection in yeast, the domain comes from the species named
Conditions: Homo sapiens

Variant	abundance fitness
Q56A	0.212 ± 0.037
Q56E	0.127 ± 0.045
Q56G	0.005 ± 0.053
Q56K	0.083 ± 0.029
Q56P	-0.026 ± 0.03
Q56R	-0.031 ± 0.034
Q56T	0.047 ± 0.028
T57A	0.024 ± 0.044
T57C	-0.019 ± 0.047
T57E	0.117 ± 0.084
T57F	-0.14 ± 0.04
T57G	-0.102 ± 0.063
T57H	-0.001 ± 0.041
T57I	-0.147 ± 0.049
T57K	-0.011 ± 0.045
T57L	-0.026 ± 0.026
T57M	-0.048 ± 0.034
T57N	-0.058 ± 0.057
T57P	-0.061 ± 0.03
T57Q	-0.013 ± 0.032
T57R	-0.036 ± 0.032
T57S	-0.039 ± 0.033
T57V	-0.052 ± 0.044
T57W	-0.252 ± 0.049
T57Y	-0.133 ± 0.059

Variant	abundance fitness
R58A	0.078 ± 0.031
R58C	-0.121 ± 0.057
R58D	0.022 ± 0.052
R58E	0.028 ± 0.04
R58F	-0.115 ± 0.068
R58G	0.205 ± 0.03
R58H	-0.041 ± 0.065
R58I	-0.09 ± 0.08
R58K	0.155 ± 0.048
R58L	-0.073 ± 0.031
R58M	-0.077 ± 0.048
R58N	0.227 ± 0.074
R58P	-0.02 ± 0.034
R58Q	0.036 ± 0.038
R58S	0.103 ± 0.035
R58V	-0.089 ± 0.034
R58W	-0.151 ± 0.042
R58Y	-0.246 ± 0.076
G59A	-0.148 ± 0.04
G59C	-0.015 ± 0.068
G59D	0.025 ± 0.078
G59E	-0.086 ± 0.053
G59F	-0.074 ± 0.058
G59H	-0.13 ± 0.049
G59I	0.119 ± 0.07

Variant	abundance fitness
G59K	0.001 ± 0.046
G59L	-0.049 ± 0.028
G59M	-0.152 ± 0.042
G59N	-0.186 ± 0.091
G59P	-0.138 ± 0.03
G59Q	-0.079 ± 0.036
G59R	-0.146 ± 0.033
G59S	-0.113 ± 0.033
G59V	-0.09 ± 0.04
G59Y	-0.222 ± 0.064
T60A	0.074 ± 0.042
T60C	-0.042 ± 0.082
T60D	0.133 ± 0.078
T60E	-0.012 ± 0.074
T60F	-0.236 ± 0.056
T60G	-0.033 ± 0.044
T60H	-0.076 ± 0.05
T60I	-0.115 ± 0.059
T60K	0.013 ± 0.043
T60L	-0.102 ± 0.031
T60M	0.062 ± 0.04
T60N	-0.036 ± 0.051
T60P	0.025 ± 0.029
T60Q	-0.02 ± 0.037
T60R	-0.126 ± 0.045

Variant	abundance fitness
T60V	-0.038 ± 0.055
T60W	-0.123 ± 0.085
T60Y	-0.218 ± 0.047
G61A	-0.103 ± 0.037
G61C	-0.018 ± 0.054
G61D	0.082 ± 0.12
G61E	-0.032 ± 0.064
G61F	-0.16 ± 0.085
G61H	-0.006 ± 0.063
G61I	-0.171 ± 0.077
G61K	0.023 ± 0.052
G61L	-0.182 ± 0.035
G61M	-0.213 ± 0.048
G61N	0.055 ± 0.092
G61P	-0.144 ± 0.036
G61Q	-0.081 ± 0.043
G61R	-0.188 ± 0.031
G61S	-0.07 ± 0.037
G61T	-0.044 ± 0.039
G61V	-0.185 ± 0.042
G61W	-0.176 ± 0.042
G61Y	-0.218 ± 0.078
A62D	0.008 ± 0.11
A62E	0.133 ± 0.037
A62G	0.104 ± 0.03

Variant	abundance fitness
A62H	-0.054 ± 0.042
A62K	0.054 ± 0.026
A62N	0.073 ± 0.045
A62P	-0.013 ± 0.026
A62Q	0.021 ± 0.025
A62R	-0.072 ± 0.028
A62T	-0.006 ± 0.026
S63C	-0.54 ± 0.21
S63D	0.029 ± 0.08
S63E	0.152 ± 0.063
S63F	-0.028 ± 0.051
S63G	0.085 ± 0.044
S63H	0.025 ± 0.058
S63I	-0.045 ± 0.057
S63K	-0.019 ± 0.043
S63L	0.006 ± 0.028
S63N	-0.113 ± 0.083
S63P	-0.027 ± 0.033
S63Q	0.057 ± 0.04
S63R	-0.133 ± 0.044
S63T	0.004 ± 0.039
S63V	-0.006 ± 0.046
S63Y	-0.204 ± 0.06
G64A	0.196 ± 0.051
G64C	0.275 ± 0.063

Variant	abundance fitness
G64D	-0.013 ± 0.21
G64E	0.054 ± 0.14
G64F	-0.067 ± 0.057
G64H	-0.209 ± 0.088
G64I	0.103 ± 0.12
G64K	0.031 ± 0.069
G64L	0.05 ± 0.031
G64M	0.165 ± 0.043
G64N	-0.373 ± 0.29
G64P	0.168 ± 0.03
G64Q	0.085 ± 0.055
G64R	-0.026 ± 0.039
G64S	0.046 ± 0.03
G64T	0.11 ± 0.04
G64V	0.154 ± 0.054
G64W	-0.097 ± 0.039
G64Y	-0.051 ± 0.081
S65A	0.031 ± 0.046
S65E	0.175 ± 0.053
S65F	-0.146 ± 0.17
S65G	-0.003 ± 0.039
S65H	-0.084 ± 0.08
S65K	-0.049 ± 0.029
S65N	0.008 ± 0.073
S65Q	0.039 ± 0.031

Variant	abundance fitness
S65R	-0.285 ± 0.03
S65T	0.062 ± 0.03
F66A	0.008 ± 0.041
F66D	0.053 ± 0.12
F66E	-0.03 ± 0.063
F66G	-0.127 ± 0.064
F66H	-0.289 ± 0.069
F66I	-0.246 ± 0.065
F66K	-0.042 ± 0.044
F66L	-0.097 ± 0.028
F66M	-0.173 ± 0.039
F66N	-0.119 ± 0.079
F66P	-0.112 ± 0.033
F66Q	-0.072 ± 0.043
F66R	-0.084 ± 0.04
F66S	-0.108 ± 0.033
F66T	-0.129 ± 0.035
F66V	-0.078 ± 0.041
F66W	-0.064 ± 0.046
F66Y	-0.046 ± 0.063
K67A	-0.028 ± 0.037
K67C	-0.096 ± 0.061
K67D	-0.174 ± 0.05
K67F	0.06 ± 0.059
K67H	-0.148 ± 0.081

Variant	abundance fitness
K67I	-0.192 ± 0.06
K67L	-0.158 ± 0.037
K67M	-0.066 ± 0.041
K67N	-0.091 ± 0.045
K67P	-0.202 ± 0.054
K67Q	-0.092 ± 0.051
K67R	-0.035 ± 0.039
K67S	0.024 ± 0.038
K67T	-0.193 ± 0.04
K67V	-0.109 ± 0.038
K67W	-0.246 ± 0.051
K67Y	-0.181 ± 0.061
L68A	-0.176 ± 0.044
L68C	-0.202 ± 0.057
L68D	-0.147 ± 0.067
L68E	-0.099 ± 0.068
L68F	-0.1 ± 0.03
L68G	-0.049 ± 0.037
L68H	-0.369 ± 0.071
L68I	-0.223 ± 0.045
L68K	-0.064 ± 0.058
L68M	-0.082 ± 0.037
L68N	-0.149 ± 0.069
L68Q	-0.327 ± 0.069
L68R	-0.138 ± 0.039

Variant	abundance fitness
L68S	-0.115 ± 0.039
L68T	-0.067 ± 0.061
L68W	-0.121 ± 0.041
L68Y	-0.185 ± 0.042
S69A	0.044 ± 0.049
S69C	-0.246 ± 0.054
S69D	-0.192 ± 0.13
S69E	0.119 ± 0.097
S69F	-0.058 ± 0.075
S69G	-0.218 ± 0.087
S69H	-0.465 ± 0.21
S69I	-0.156 ± 0.096
S69K	-0.012 ± 0.095
S69L	-0.128 ± 0.035
S69M	-0.186 ± 0.058
S69N	-0.055 ± 0.048
S69P	-0.115 ± 0.039
S69Q	-0.102 ± 0.091
S69R	-0.151 ± 0.041
S69T	-0.029 ± 0.044
S69V	-0.093 ± 0.056
S69W	0.173 ± 0.05
S69Y	0.171 ± 0.08

Variants of: B2
Assay: as above
Conditions: Homo sapiens

Variant	abundance fitness
V18E	0.039 ± 0.068
T39E	0.046 ± 0.078
K26M	-0.278 ± 0.061
T15G	0.081 ± 0.053
Y38I	-1.02 ± 0.099
D1G	-0.901 ± 0.1
D27Y	-0.417 ± 0.1
V8P	-0.534 ± 0.075
V18P	-0.372 ± 0.11
V18W	-0.132 ± 0.053
R16N	-0.128 ± 0.12
E20C	-0.264 ± 0.056
D13H	-1.01 ± 0.3
I9T	-0.012 ± 0.095
G19H	-0.478 ± 0.077
E20H	-0.498 ± 0.15
I9L	0.026 ± 0.078
P36R	-0.401 ± 0.07
L17G	-0.371 ± 0.056
N25L	-0.252 ± 0.077
N10L	-1.01 ± 0.076
V40H	-0.372 ± 0.074
V29M	-0.095 ± 0.12

Variant	abundance fitness
D21H	-0.109 ± 0.079
P36L	-0.81 ± 0.096
V40M	-0.379 ± 0.083
T39V	-0.004 ± 0.063
G19L	-0.518 ± 0.13
V29P	0.063 ± 0.083
A22Y	-1.03 ± 0.09
H35N	-0.064 ± 0.077
A22M	-0.673 ± 0.14
V18T	0.118 ± 0.095
T39R	0.002 ± 0.06
L28Y	-0.499 ± 0.12
L34A	0.141 ± 0.077
D27S	-1.11 ± 0.3
D27I	-0.438 ± 0.12
P23I	-0.496 ± 0.071
E30L	-0.497 ± 0.056
K24S	-0.206 ± 0.054
E20A	-0.163 ± 0.11
A22I	-0.483 ± 0.076
R16M	0.502 ± 0.24
W31Y	-0.297 ± 0.064
K33N	-0.095 ± 0.078

Variant	abundance fitness
D27T	-0.526 ± 0.094
N25K	0.095 ± 0.067
L34E	0.048 ± 0.07
E20I	-0.208 ± 0.063
V8D	-0.511 ± 0.16
N25I	-0.326 ± 0.095
M42L	-0.172 ± 0.07
D41S	-0.438 ± 0.057
E30N	-0.065 ± 0.074
D21N	-0.054 ± 0.067
G19Y	-0.45 ± 0.12
K33H	-0.22 ± 0.46
V18K	-0.154 ± 0.16
N25Y	-0.253 ± 0.094
G19V	-0.64 ± 0.079
D21W	-0.442 ± 0.17
L28Q	-0.841 ± 0.2
P7G	0.227 ± 0.096
A22C	-0.168 ± 0.057
D3Q	-0.109 ± 0.073
P7V	-0.238 ± 0.12
D3R	-0.256 ± 0.055
T37A	-0.131 ± 0.068

Variant	abundance fitness
T15H	-0.128 ± 0.19
L28G	-0.401 ± 0.048
T39F	-0.639 ± 0.11
D3V	-0.335 ± 0.095
I6H	-0.133 ± 0.23
H35E	-0.615 ± 0.093
V40N	-0.341 ± 0.071
D1V	-0.184 ± 0.063
G14L	-0.424 ± 0.089
Y38S	-0.297 ± 0.076
E30G	-0.145 ± 0.056
P23R	-0.843 ± 0.11
L32D	-0.332 ± 0.12
A22F	-0.466 ± 0.34
D27P	-0.88 ± 0.1
V18S	0.076 ± 0.073
L17M	0.151 ± 0.073
V29H	0.098 ± 0.073
L28N	-0.524 ± 0.1
P36E	-0.406 ± 0.071
Y38F	-0.128 ± 0.059
K26D	-0.258 ± 0.076
L28P	-0.568 ± 0.11

Variant	abundance fitness
H35L	-0.866 ± 0.08
L34Y	-0.251 ± 0.052
L17T	-0.308 ± 0.12
K26S	-0.106 ± 0.054
V40A	0.135 ± 0.1
D41P	-0.453 ± 0.12
N10S	-0.025 ± 0.056
D3A	-0.283 ± 0.052
G14D	-0.146 ± 0.14
L28F	-0.24 ± 0.11
T4I	-0.115 ± 0.14
T39C	-0.212 ± 0.064
R5L	-0.844 ± 0.26
W31C	-0.301 ± 0.051
V18N	-0.06 ± 0.063
E30S	-0.023 ± 0.059
K33W	-0.319 ± 0.079
P36K	-0.321 ± 0.39
D27H	-0.224 ± 0.076
